Assays:
Format in all cases: biochemical
[1] = system: herring sperm genomic DNA; test: Nucleolytic (specific) activity of PPR nuclease, modified Kunitz's test: effect of pH, temperature and Mg2+
Procedure: FIG. 2—showing pH influence on PPR nucleolytic activity depending on NaCl salt concentration. Measurement using modificated Kunitz's test, conditions: 20 mM MgCh, temperature of 22° C.
FIG. 3—showing temperature and high salts (500 mM NaCl+100 mM MgCL) influence on PPR nucleolytic activity. Measurement using modificated Kunitz's test.
FIG. 4—showing influence of Mg^2, ions on PPR nucleolytic activity in selected pH and temperature conditions. Maximum PPR activity is obtained at 50-150 mM concentration at 37° C. in a pH 8.0 buffer.
(§1) In order to determine PPR nuclease specific activity serial dilutions of the enzyme are incubated in a reaction buffer containing 20 mM Tris-HCl (pH 8.0), 20 mM MgCh and 100 pg of herring sperm genomic DNA of 300 m ? volume at 37° C. for 30 min. The reaction is stopped by adding 300 m ? 4% solution of perchloric acid to 2% final concentration and sample incubation on ice for 60 min. As a control, 100 pg DNA is incubated without the addition of nuclease. Afterwards, the samples are centrifuged for 10 minutes until separation of the precipitate of non-degraded DNA. The content of free nucleotides and oligonucleotide fragments smaller than 10 bp is determined in supernatant by measuring absorbance at 260 nm wavelength. 1 U nuclease activity is determined as enzyme quantity causing increase of absorbance in the studied sample at 260 nm wavelength of 1.0 within 30 minutes of reaction at 37° C.
In order to determine optimal pH for enzyme nucleolytic activity reaction is conducted as described in Example 4. The solutions of pH 6.0-10.0 with 1 U enzyme in reaction mixtures containing 0, 250, 500 mM NaCl, respectively.
The determination of the optimal temperature for enzyme nucleolytic activity reaction is performed as described in Example 4 at various temperatures from 6° C. to 45° C. with 1 U enzyme in the reaction mixture containing 50 mM Tris, pH 8.0 and variable concentrations of MgCh (5 mM and 100 mM). […] It needs to be highlighted that in these conditions 100% of standard activity may be obtained in refrigerated conditions at 6° C., by applying the relevant salt concentration: NaCl (500 mM) and MgCh (100 mM).
To determine the effects of Mg^2+ ion concentration on PPR nucleolytic activity reaction is performed as described in Example 4 in solutions of varied content of Mg^2+ ions; 5 mM to 200 mM with 1 U enzyme in the reaction mixture. […] In all observed ranges of MgCh (5-200 mM) PPR concentrations show high specific activity.

pUC19 plasmid DNA [2] = test: Effects of potential inhibitors (salts, urea, imidazole) on PPR nucleolytic activity
Procedure: (§2) In order to determine PPR nuclease nucleolytic activity serial dilutions of the enzyme are incubated in a reaction buffer containing 20 mM Tris-HCl (pH 8.0), 20 mM MgCb and 1 pg pUC19 plasmid DNA of 20 m ? volume for 10 min. The reaction is stopped by adding 5 m ? 25 mM DTT solution to a final concentration of 5 mM and the sample is heated to 55° C. for 10 min. As a control, 1 pg of pUC19 plasmid DNA is incubated without the addition of nuclease. Subsequently, the samples are loaded onto a 1% agarose gel and DNA separation is performed in gel at 130 voltage for 40 min. The remaining, nondegraded DNA in gel is stained with ethidium bromide and documented by taking a photography of the gel. 1 U activity is determined as the enzyme quantity essential for total degradation of 1 pg of pUC19 plasmid DNA in 10 min. at 37° C.
as §1
To determine the scope of enzyme tolerance to popular ion components used in the preparation of recombinant proteins, present in the reaction buffer, a nucleolytic reaction is performed as described in Example 4 in solutions of various amounts of individual potential inhibitors: NaCl, urea, ammonium sulphate, imidazole. The PPR nuclease retains high nucleolytic activity in the presence of increased concentrations of tested substances, as shown in Table 1.

pUC19 plasmid DNA [3] = test: Thermal inactivation of PPR enzymatic activity in the presence of DTT, plasmid DNA degradation on agarose gel; settings: incubation for 15 minutes in the presence of 1-5 mM DTT
Procedure: FIG. 5—showing PPR inactivation in various temperature conditions in the presence of 5 mM DTT. Complete PPR inactivation is obtained at 52° C.
as §2
To determine the parameters of PPR nuclease inactivation series of 0.2 ml test probes for PCR are prepared containing 100 U PPR in a 50 m ? reaction buffer containing 5 mM DTT, as described in Example 4A, excluding pUCIO plasmid DNA. Afterwards, the probes are incubated for 15 minutes at relevant temperatures and then for 5 minutes on ice. […] The degree of plasmid DNA degradation in the trials is analyzed on an agarose gel.

[4] = system: herring sperm genomic DNA; test: Nucleolytic activity of PPR, HL-SAN, Benzonase nucleases in buffers of varied salt concentration and pH
Procedure: FIG. 6—showing the comparison of nucleolytic activity values of PPR, HL-SAN and Benzonase® nucleases in buffers of various NaCl concentrations (0, 250, 500 mM), in pH 7.0, 8.0, 9.0, respectively. The remaining reaction conditions are as follows: temperature 22° C., 50 mM Tris, 20 mM MgCk (5 mM MgCk used for Benzonase®). […] The advantage of PPR over the HL-SAN nuclease, whose characteristics are the most similar, increases in correlation with decreasing pH (7.0-8.0).
(§3) In order to determine PPR nuclease specific activity serial dilutions of the enzyme are incubated in a reaction buffer containing 20 mM Tris-HCl (pH 8.0), 20 mM MgCh and 100 pg of herring sperm genomic DNA of 300 m ? volume at 37° C. for 30 min. The reaction is stopped by adding 300 m ? 4% solution of perchloric acid to 2% final concentration and sample incubation on ice for 60 min. As a control, 100 pg DNA is incubated without the addition of nuclease. Afterwards, the samples are centrifuged for 10 minutes until separation of the precipitate of non-degraded DNA. The content of free nucleotides and oligonucleotide fragments smaller than 10 bp is determined in supernatant by measuring absorbance at 260 nm wavelength. 1 U nuclease activity is determined as enzyme quantity causing increase of absorbance in the studied sample at 260 nm wavelength of 1.0 within 30 minutes of reaction at 37° C. […]

[5] = system: herring sperm genomic DNA; test: Nucleolytic activity of PPR, HL-SAN, Benzonase nucleases in DMEM medium
Procedure: FIG. 7—showing the comparison of values of the PPR, HL-SAN and Benzonase® nucleases' nucleolytic activities in DMEM medium, commonly used for mammalian in vitro cell culture, in which recombinant proteins, virus vectors and other biological therapeutics are produced.
as §1
Determination of the nucleolytic activity of PPR, HL-SAN and Benzonase® nucleases are performed as described in Example 4 at various temperatures: 6° C., 22° C. and 37° C. but instead of a reaction buffer DMEM medium (commonly used in cultures of mammalian cells, e.g. CHO, HEK, for the production of recombinant proteins and virus vectors) is used. […] At 37° C. […] The activity for every enzyme in conditions recommended by the manufacturer was assumed as 100% activity.

[6] = system: herring sperm genomic DNA; test: Nucleolytic activity of PPR, HL-SAN, Benzonase nucleases in PBS and TBS buffers; settings: PBS, TBS and TBS with 500 mM NaCl; 6° C., 22° C. and 37° C.
Procedure: FIG. 8—showing the comparison of values of the PPR, HL-SAN and Benzonase® nucleases' nucleolytic activities in buffers with similar physiological salt concentration (PBS and TBS) with the addition of 500 mM NaCl, commonly used in the methodology of recombinant protein purification.
as §3

B1: PPR nuclease: non-specific nuclease that is the subject matter of the invention of SEQ ID NO: 2; thermolabile, recombinant, produced in E. coli (protein)
chain: MKYLLPTAAAGLLLLAAQPAMAASMEHHHHHHGSENLYFQSAPPSSFSKAKRLAVEIYQDHPTSFYCGCAITWQGKKGLPDLASCGYEVRKQEKRANRIEWEHVVPAENFGRAFVEWREGHPQCVNSKGKAYKGRSCATKMNPTYRSMQADLHNLTPAVGEVNGDRSNYAFLPWNGNNGAFYGQCDMKIDFKNRRADPPEQSRGAIARTYLYMNQEYKMALSSQQRQLMEAWNRQYPISTWECERDRRIANIQDNHNSFVLQACKKAGY
- pH of highest nucleolytic activity ([1]; 500 mM NaCl, tested pH 6.0-10.0 at 0, 250, 500 mM NaCl, 20 mM MgCl2, 22° C., 1 U enzyme): 8.0
- nucleolytic activity over tested temperature range ([1]; 6° C. to 45° C., 50 mM Tris, pH 8.0): maintains nucleolytic activity in the whole range of the tested temperatures
- MgCl2 concentration range with high specific activity / enzyme active ([1]; MgCl2): 5 to 200 mM
- temperature of highest nucleolytic activity ([1]; NaCl (500 mM) and MgCl2 (100 mM), 50 mM Tris, pH 8.0, tested 6° C. to 45° C.): 37 °C
- Mg2+ concentration of highest nucleolytic activity ([1]; pH 6.5): 20 mM
- optimum Mg2+ concentration range for nucleolytic activity ([1]; pH 6.5 buffer, ambient temperature (22° C.)): 20 to 50 mM
- Mg2+ concentration of highest nucleolytic activity ([1]; pH 8.0): 150 mM
- optimum Mg2+ concentration range for nucleolytic activity ([1]; pH 8.0 buffer, 37° C.): 50 to 150 mM
- nucleolytic activity relative to standard activity ([1]; refrigerated conditions at 6° C., NaCl (500 mM) and MgCl2 (100 mM)): 100 % of standard activity
- Non-inhibiting concentration (pUC19 plasmid DNA [2]; Ammonium sulphate): 0 to 200 mM
- Non-inhibiting concentration (pUC19 plasmid DNA [2]; Imidazole): 0 to 400 mM
- Non-inhibiting concentration (pUC19 plasmid DNA [2]; NaCl/KCl): 0 to 1400 mM
- Non-inhibiting concentration (pUC19 plasmid DNA [2]; Urea): 0 to 6000 mM
- temperature of irreversible inactivation (pUC19 plasmid DNA [3]): 52 °C
- nucleolytic activity compared with the other tested nucleases ([4]; 250 and 500 mM NaCl, pH 7.0, 8.0 and 9.0, 22° C., 50 mM Tris, 20 mM MgCl2): highest nucleolytic activity of all tested nucleases
- nucleolytic activity compared with HL-SAN and Benzonase ([4]; lower pH (7.0, 8.0) and ambient temperature (22° C.)): significantly more active
- nucleolytic activity relative to Benzonase nuclease ([5]; 37° C.): six times more active
- nucleolytic activity compared with the other tested enzymes ([5]; all tested temperatures (6° C., 22° C., 37° C.)): highest nucleolytic activity of all tested enzymes
- nucleolytic activity relative to HL-SAN and Benzonase ([5]; refrigerated conditions (6° C.) and ambient temperature (22° C.)): approx three times more active
- nucleolytic activity compared with the other tested enzymes [6]: highest nucleolytic activity of all tested enzymes

Source: patent US20230287369A1, “A NEW, NON-SPECIFIC THERMOLABILE NUCLEASE ACTIVE AT LOW TEMPERATURE, IN WIDE PH RANGE AND HIGH CONCENTRATION IN SALTS” (Blirt S.A., priority 2019, published 2023)
